Values of other authors in patent US5925739A, “Pharmaceutical formulation for subcutaneous intramuscular or intradermal administration of factor VIII” (Pharmacia & Upjohn AB, priority 1994, dated 1999).

Settings: hemophilia B patients, injected into subcutaneous tissue

For “human factor IX: coagulation factor IX, molecular mass of about 56 kDa”, the “transport into the circulation” value is listed as “poorly and very slowly transported into the circulation”.
